Experimental findings from publication PMC10567711, “Structure-guided inhibition of the cancer DNA-mutating enzyme APOBEC3A” are described below.

In data set [1] the target is T1, A3A-E72A (human, UniProt P31941 1-199, E72A). Description: X-ray crystallography; Zn2+; 3.15 A; one copy threaded with GACC loop; ITC: 50 mM Na+/K+ phosphate pH 6.0, 50 mM NaCl, 50 mM choline acetate, 2.5 mM TCEP, 200 uM EDTA, 30 mg/mL BSA, 25 C; NMR inhibition: 50 mM Na+/K+ phosphate pH 7.4, 100 mM NaCl, 1 mM TCEP, 100 uM DSS, 10% D2O, 20 C, 140 nM A3A. The following applies: protein: recombinant; hairpin, 4 bp stem incl. one AT pair, 4-nt loop CTTC.

Data set [2] concerns the target T1, A3A-E72A. Put plainly: X-ray crystallography; 1.91 A; Cl-; ITC: 50 mM Na+/K+ phosphate pH 6.0, 50 mM NaCl, 50 mM choline acetate, 2.5 mM TCEP, 200 uM EDTA, 30 mg/mL BSA, 25 C; NMR inhibition: 50 mM Na+/K+ phosphate pH 7.4, 100 mM NaCl, 1 mM TCEP, 100 uM DSS, 10% D2O, 20 C, 140 nM A3A. The following applies: protein: recombinant; hairpin, potential 6 bp stem, 4-nt loop ATTC.

T1 sequence (P31941 whole entry E72A): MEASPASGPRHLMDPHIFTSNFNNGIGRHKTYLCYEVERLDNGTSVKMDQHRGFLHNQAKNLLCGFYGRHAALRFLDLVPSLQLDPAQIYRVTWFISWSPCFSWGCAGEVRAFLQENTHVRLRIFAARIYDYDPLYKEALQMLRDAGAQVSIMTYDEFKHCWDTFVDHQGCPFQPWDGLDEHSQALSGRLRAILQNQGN

B1: CTTC-hairpin (structured_DNA)
DNA: GCCACCTTCGTGGG
In the case of B1, the binding result with A3A-E72A [1] is on record as “binds”.

B2: ATTC-hairpin (structured_DNA)
DNA: CCCATCATTCGATGGG
B2: the binding result with A3A-E72A [2] was “binds”.
